The source of these data is paper PMC7820887 (Frontiers in Immunology, 2020).

Usually IC50 stands for the concentration needed to halve the response being measured. Broadly, the Kd is the equilibrium constant for the complex coming apart. A low value points to tighter binding. The koff is the first-order rate constant of dissociation. As a reminder, the kon is the rate constant with which the complex forms.

Substitutions are numbered along the chain they refer to.

The target of test [1] is T1, soluble extracellular domain of human IL-5 receptor alpha subunit (sIL-5Rα) (human, UniProt Q01344). The test is described as follows: cell-based or functional assay.
The target in test [2] is T1, soluble extracellular domain of human …. The test is described as follows: ELISA; competitive: plates coated with IL-5-mFc (100 ng/well); sIL-5Rα (50 nM) added with anti–IL-5Rα Abs (0–1 µM), 25°C, 1 h; bound sIL-5Rα detected with HRP anti-His. To be noted: both partners purified. A general note: In an ELISA, binding on a coated surface is turned into a signal by an enzyme label.

The target is the same in test [3]. The experiment in a line: BLI; Octet QKe, 30°C, 1× kinetics buffer in PBS pH 7.4; Ab immobilised on anti-human IgG Fc capture (AHC) biosensors, sIL-5Rα as analyte; association 300 s, dissociation 600 s; 1:1 binding model. To be noted: both partners purified. A general note: BLI is a label-free optical method that tracks binding on a fibre tip over time.
In test [4] the target is T2, soluble extracellular domain of human IL-5 receptor alpha subunit (sIL-5Rα) (human, UniProt Q01344 21-333).
T2 chain: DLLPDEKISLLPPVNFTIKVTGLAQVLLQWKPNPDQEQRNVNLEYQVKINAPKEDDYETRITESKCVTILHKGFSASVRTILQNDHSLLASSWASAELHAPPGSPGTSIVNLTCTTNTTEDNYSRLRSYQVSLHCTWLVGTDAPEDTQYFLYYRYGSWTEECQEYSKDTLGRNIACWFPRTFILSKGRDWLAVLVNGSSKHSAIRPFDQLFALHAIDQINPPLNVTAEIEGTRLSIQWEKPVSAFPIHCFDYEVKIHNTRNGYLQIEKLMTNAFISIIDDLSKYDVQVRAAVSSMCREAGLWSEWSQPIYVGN
The test is described as follows: ELISA; competition with plate-immobilized IL-5-mFc.

Test [5] has as its target T3, insulin (Homo sapiens (assumed), UniProt P01308).
T3 construct: insulin B chain; insulin A chain; Off-target antigen of the nonspecificity ELISA (125 ng/well)
The experiment in a line: ELISA; plates coated at 25°C for 1 h with sIL-5Rα (50 ng/well) or off-target antigens (insulin 125 ng/well, hemocyanin 125 ng/well); Abs 8–200 nM in PBST pH 7.4 with 2% skim milk, 25°C, 1 h; detected with HRP anti-human Fc or anti-mouse Fc. To be noted: both partners purified.

T3 sequence (P01308 whole entry, looked up): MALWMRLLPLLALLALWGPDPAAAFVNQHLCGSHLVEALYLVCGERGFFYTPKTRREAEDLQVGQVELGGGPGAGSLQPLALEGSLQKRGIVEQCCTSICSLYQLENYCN

B1: benralizumab analogue (antibody, V domains shown)
VH: EVQLVQSGAEVKKPGASVKVSCKASGYTFTSYVIHWVRQRPGQGLAWMGYINPYNDGTKYNERFKGKVTITSDRSTSTVYMELSSLRSEDTAVYLCGREGIRYYGLLGDYWGQGTLVTVSS
VL: DIQMTQSPSSLSASVGDRVTITCGTSEDIINYLNWYQQKPGKAPKLLIYHTSRLQSGVPSRFSGSGSGTDFTLTISSLQPEDFATYYCQQGYTLPYTFGQGTKVEIK
notes: VH of benralizumab, made by DNA synthesis; VL of benralizumab, made by DNA synthesis; Human IgG1, kappa; VH and VL identical to commercial benralizumab but with core fucose on the Fc N-glycan; also called benralizumab analogue (fucosylated human IgG1); source: HEK293F, transiently transfected, purified (Protein A)
B1: the “IC50 of inhibition of rhIL-5 (80 pM)-stimulated proliferation of TF-1/IL-5Rα cells, Abs 0 to 32 nM, 40 h (blocks IL-5 with IL-5Rα)” value (from here on “IC50 of inhibition … (blocks IL-5 with IL-5Rα)”) in test [1] is around 1.99 nM. The molecule further showed a half-inhibitory concentration (IC50) in test [2] of around 9.8 nM. In test [3], this molecule yielded a Kd of 26.8 ± 0.52 nM, an off-rate constant (koff) of 0.0011 s⁻¹ and a kon of 41100 M⁻¹ s⁻¹.

B2: m2B7 murine anti–IL-5Rα antibody (antibody, V domains shown)
VH: QVQLQQPGAELVRPGASVKLSCKASGYTFTSYWINWVKQRPGQGLEWIGHIYPSESYTNYNQKFKDKATLTVDKSSSTAYMQLSSPTSEDSAVYYCTRDYYGRSYYYAMDYWGQGTSVTVSS
VL: DIVMTQSHKFMSTSVGDRVSITCKASQNVGTAVAWYQQKPGQSPKLLIYWASTRHTGVPDRFTGSGSGTDFTFTISNVQSEDLADYFCQQFGRYPYTFGGGTKLEIK
notes: VH of murine m2B7; FRs of mouse germline IGHV1-61*01; VL of murine m2B7; FRs of mouse germline IGKV6-23*01; source: hybridoma supernatant, expanded and purified
In test [3], B2 gave a Kd of 40.2 ± 0.84 nM, a dissociation rate constant (koff) of 0.000834 s⁻¹ and a kon of 20700 M⁻¹ s⁻¹.

B3: 5R68 (antibody, V domains shown)
VH: QVQLVQSGAEVKKPGSSVKVSCKASGYTFTSYWINWVRQAPGQGLEWIGHIYPTATIAVYNDKFKDKATLTVDKSTNTAYMELSSLRSEDTAVYYCTRDYYGRSYYYAMDYWGQGTTLTVSS
VL: DIQMTQSPSTLSASVGDRVTITCKASQNVGTAVAWYQQKPGKAPKLLIYWASTRHTGVPDRFSGSGSGTDFTLTISSLQPDDFATYYCQQFGRYPYTFGSGTKVEVK
notes: Human IgG1, kappa; selected as scFab by yeast display from the hu2B7 VH-CDR2 library; source: HEK293F, purified (Protein A)
Consider B3, for which the IC50 in test [4] was found to be 28.8 nM. In test [3], binding was put at a Kd of 24.1 ± 0.47 nM, the off-rate constant (koff) was 0.000566 s⁻¹ and the kon was 23500 M⁻¹ s⁻¹. In addition, the binding result in test [5] was “no binding (tested: 100 nM)”.

B4: 5R86 (antibody, V domains shown)
VH: B3 VH with A55S, T56S, I57V, A58K, V59F, D62N
VL: B3 VL
notes: as for B3
Take B4: in test [4], the IC50 came to 14.1 nM. Also, in test [3], binding was characterised by a dissociation constant (Kd) of 11.8 ± 0.51 nM, the koff worked out at 0.0003 s⁻¹ and the kon was 25400 M⁻¹ s⁻¹. For the same molecule, in test [5], the binding result is “no binding (tested: 100 nM)”.

B5: 5R65.39 (antibody, V domains shown)
VH: QVQLVQSGAEVKKPGSSVKVSCKASGYTFTSYWINWVRQAPGQGLEWIGHIYPNKNENYYNHKFKDKATLTVDKSTNTAYMELSSLRSEDTAVYYCTREFYGRSRYSAMDYWGQGTTLTVSS
VL: B3 VL
notes: as the VH of m6 (5R65) with mutations in VH-CDR3 (Kabat residues 95–100d were randomised); no mutations in VL-CDR3; Human IgG1, kappa; selected as scFab by yeast display from the 5R65 CDR3 library under kinetic screening; source: HEK293F, purified (Protein A)
In test [3], B5 gave a Kd of 6.13 ± 0.32 nM, an off-rate constant (koff) of 0.000171 s⁻¹ and a kon of 28000 M⁻¹ s⁻¹.

B6: hu2B7 humanized anti–IL-5Rα antibody (antibody, V domains shown)
VH: B3 VH with T54S, A55E, T56S, I57Y, A58T, V59N, D62Q
VL: B3 VL
notes: VH of hu2B7: CDRs of m2B7 grafted on the FRs of daclizumab, mouse ThrH93 (Kabat) kept; VL of hu2B7: CDRs of m2B7 grafted on the FRs of daclizumab, mouse AspL60 and AspL70 kept; Full-length human IgG1, kappa; source: HEK293F, transiently cotransfected, purified (Protein A)
Molecule B6 had an IC50 in test [4] of 57.4 nM. In test [3], this molecule registered a Kd of 47.8 ± 1.06 nM, a koff of 0.00106 s⁻¹ and an association rate constant (kon) of 22200 M⁻¹ s⁻¹.

B7: 5R80 (antibody, V domains shown)
VH: B3 VH with T54Q, A55K, I57L, A58T, V59I, D62H
VL: B3 VL
notes: as for B3
In test [4], B7 registered an IC50 of 24.2 nM. Also, in test [3], binding was put at a Kd of 16.2 ± 0.59 nM, the koff worked out at 0.000365 s⁻¹ and the on-rate constant (kon) is 22500 M⁻¹ s⁻¹. In test [5], the binding result is “no binding (tested: 100 nM)”.

B8: 5R65.18 (antibody, V domains shown)
VH: B5 VH with F100Y, S104T, R105Y
VL: B3 VL
notes: as for B5
In test [3], B8 registered a Kd of 5.95 ± 0.27 nM, a koff of 0.000133 s⁻¹ and an on-rate constant (kon) of 22400 M⁻¹ s⁻¹.

B9: 5R65.45 (antibody, V domains shown)
VH: B5 VH with F100Y, R105Y, S107N
VL: B3 VL
notes: as for B5
As for B9, in test [3], the Kd was determined as 7.26 ± 0.36 nM, the koff came out at 0.000181 s⁻¹ and the kon was 24900 M⁻¹ s⁻¹.

B10: 5R65 (antibody, V domains shown)
VH: B5 VH with E99D, F100Y, R105Y, S107Y
VL: B3 VL
notes: Human IgG1, kappa; selected as scFab by yeast display from the hu2B7 VH-CDR2 library; also called 5R65 Ab; source: HEK293F, purified (Protein A)
Turning to B10, in test [1], the “IC50 of inhibition … (blocks IL-5 with IL-5Rα)” value is around 11.8 nM and the “NK cell–mediated ADCC against peripheral eosinophils from healthy controls (autologous NK cells 1:5, Ab 1 μM, rhIL-5 100 pM, 20 h), fold against the benralizumab analogue” value is around 1.5 fold. The IC50 in test [2] was around 9.5 nM. Moreover, in test [3], the dissociation constant Kd turned out to be 14.5 ± 0.29 nM, the koff came out at 0.000329 s⁻¹ and the kon is 22700 M⁻¹ s⁻¹. Moreover, the binding result in test [5] was “no binding (tested: 100 nM)”.

B11: 5R65.10 (antibody, V domains shown)
VH: B5 VH with F100Y, R105Y, S107A
VL: B3 VL
notes: as for B5
Consider B11, for which, in test [3], the Kd worked out at 8.25 ± 0.4 nM, the off-rate constant (koff) came out at 0.000201 s⁻¹ and the on-rate constant (kon) was 24400 M⁻¹ s⁻¹.

B12: 5R65.7 (antibody, V domains shown)
VH: B5 VH with S104Q, R105Y, S107Q
VL: B3 VL
notes: as the VH of m6 (5R65) with mutations in VH-CDR3 (Kabat residues 95–100d were randomised); no mutations in VL-CDR3; Human IgG1, kappa; selected as scFab by yeast display from the 5R65 CDR3 library under kinetic screening; also called 5R65.7 Ab; source: HEK293F, purified (Protein A)
As for B12, in test [1], the “IC50 of inhibition … (blocks IL-5 with IL-5Rα)” value is around 0.57 nM and the “NK cell–mediated ADCC against peripheral eosinophils from healthy controls (autologous NK cells 1:5, Ab 1 μM, rhIL-5 100 pM, 20 h), fold against the benralizumab analogue” value was around 3 fold. In test [3], binding was put at a Kd of 4.64 ± 0.23 nM, the koff was 0.000147 s⁻¹ and the kon stood at 31700 M⁻¹ s⁻¹.

B13: 5R65.14 (antibody, V domains shown)
VH: B5 VH with F100H, S104P, R105Y, S107N
VL: B3 VL
notes: as for B5
In test [3], B13 registered a Kd of 8.64 ± 0.35 nM, a koff of 0.000199 s⁻¹ and a kon of 23000 M⁻¹ s⁻¹.
